Columns and labels:
[1] = confocal microscopy, stable HeLa lines; settings: glycan lost; control: WT CD95
[2] = cycloheximide chase, Western blot, HEK293T; settings: glycan lost; control: WT CD95
[3] = anti-APO-1 surface staining (flow cytometry), transient HeLa; settings: glycan lost; control: WT CD95
[4] = high molecular weight CD95 complexes after anti-APO-1, Western blot; settings: glycan lost; control: WT CD95
[5] = anti-APO-1 surface staining, flow cytometry; settings: glycan changed form; control: untreated SKW6.4 cells

| Protein | localisation_or_trafficking [1] | degradation_or_half_life [2] | localisation_or_trafficking [3] | oligomerisation [4] | localisation_or_trafficking [5] |
| --- | --- | --- | --- | --- | --- |
| CD95 (Fas/APO-1): N118Q (protein) parent chain: MLGIWTLLPLVLTSVARLSSKSVNAQVTDINSKGLELRKTVTTVETQNLEGLHHDGQFCHKPCPPGERKARDCTVNGDEPDCVPCQEGKEYTDKAHFSSKCRRCRLCDEGHGLEVEINCTRTQNTKCRCKPNFFCNSTVCEHCDPCTKCEHGIIKECTLTSNTKCKEEGSRSNLGWLCLLLLPIPLIVWVKRKEVQKTCRKHRKENQGSHESPTLNPETVAINLSDVDLSKYITTIAGVMTLSQVKGFVRKNGVNEAKIDEIKNDNVQDTAEQKVQLLRNWHQLHGKKEAYDTLIKDLKKANLCTLAEKIQTIILKDITSDSENSNFRNEIQSLV | no change | no change | no change | no change |  |
| CD95 (Fas/APO-1): N136Q (protein) parent chain: MLGIWTLLPLVLTSVARLSSKSVNAQVTDINSKGLELRKTVTTVETQNLEGLHHDGQFCHKPCPPGERKARDCTVNGDEPDCVPCQEGKEYTDKAHFSSKCRRCRLCDEGHGLEVEINCTRTQNTKCRCKPNFFCNSTVCEHCDPCTKCEHGIIKECTLTSNTKCKEEGSRSNLGWLCLLLLPIPLIVWVKRKEVQKTCRKHRKENQGSHESPTLNPETVAINLSDVDLSKYITTIAGVMTLSQVKGFVRKNGVNEAKIDEIKNDNVQDTAEQKVQLLRNWHQLHGKKEAYDTLIKDLKKANLCTLAEKIQTIILKDITSDSENSNFRNEIQSLV | no change | no change | no change | no change |  |
| CD95 (Fas/APO-1): DMM (protein) parent chain: MLGIWTLLPLVLTSVARLSSKSVNAQVTDINSKGLELRKTVTTVETQNLEGLHHDGQFCHKPCPPGERKARDCTVNGDEPDCVPCQEGKEYTDKAHFSSKCRRCRLCDEGHGLEVEINCTRTQNTKCRCKPNFFCNSTVCEHCDPCTKCEHGIIKECTLTSNTKCKEEGSRSNLGWLCLLLLPIPLIVWVKRKEVQKTCRKHRKENQGSHESPTLNPETVAINLSDVDLSKYITTIAGVMTLSQVKGFVRKNGVNEAKIDEIKNDNVQDTAEQKVQLLRNWHQLHGKKEAYDTLIKDLKKANLCTLAEKIQTIILKDITSDSENSNFRNEIQSLV |  |  |  |  | no change |
| CD95 (Fas/APO-1): VCN (protein) parent chain: MLGIWTLLPLVLTSVARLSSKSVNAQVTDINSKGLELRKTVTTVETQNLEGLHHDGQFCHKPCPPGERKARDCTVNGDEPDCVPCQEGKEYTDKAHFSSKCRRCRLCDEGHGLEVEINCTRTQNTKCRCKPNFFCNSTVCEHCDPCTKCEHGIIKECTLTSNTKCKEEGSRSNLGWLCLLLLPIPLIVWVKRKEVQKTCRKHRKENQGSHESPTLNPETVAINLSDVDLSKYITTIAGVMTLSQVKGFVRKNGVNEAKIDEIKNDNVQDTAEQKVQLLRNWHQLHGKKEAYDTLIKDLKKANLCTLAEKIQTIILKDITSDSENSNFRNEIQSLV |  |  |  |  | no change |
| CD95 (Fas/APO-1): N118Q/N136Q (protein) parent chain: MLGIWTLLPLVLTSVARLSSKSVNAQVTDINSKGLELRKTVTTVETQNLEGLHHDGQFCHKPCPPGERKARDCTVNGDEPDCVPCQEGKEYTDKAHFSSKCRRCRLCDEGHGLEVEINCTRTQNTKCRCKPNFFCNSTVCEHCDPCTKCEHGIIKECTLTSNTKCKEEGSRSNLGWLCLLLLPIPLIVWVKRKEVQKTCRKHRKENQGSHESPTLNPETVAINLSDVDLSKYITTIAGVMTLSQVKGFVRKNGVNEAKIDEIKNDNVQDTAEQKVQLLRNWHQLHGKKEAYDTLIKDLKKANLCTLAEKIQTIILKDITSDSENSNFRNEIQSLV |  | no change |  | no change |  |

— PMC3097226
